The record followed here is patent publication US20210347908A1 (ELPISCIENCE SUZHOU BIOPHARMA, published 2021).

In assay [1] the target is T1, biotin labeled soluble human SIRPα v1 ECD recombinant protein (human, UniProt P78324 31-373, biotin labeled).
T1 construct: extracellular domain
Kind of assay: competitive ELISA; competitor 060. Here is the method:
(§1) Competitive ELISA assay was used for epitope binning of 9 functional antibodies. Briefly excessive competitor antibody and biotin labeled soluble human SIRPα v1 ECD recombinant protein were co-incubated with ELISA microplate coated antibody. After washing, HRP-SA was added and incubated at 37° C. for 1 hour. Then, […] of TMB solution (Biotechnology) was added. After incubation for 15 minutes at room temperature, the reaction was stopped by the addition of […] of 1N HCl. OD 450 nm was read. Competition ratio was calculated. The antibodies that can compete each other for binding to SIRPα have the similar binding epitope.
On the technique in general: In an ELISA, binding on a coated surface is turned into a signal by an enzyme label.

The target of assay [2] is T1, biotin labeled soluble human SIRPα v1 …. Kind of assay: competitive ELISA; competitor 074. On the procedure: as §1
The target is the same in assay [3]. The assay can be described thus: competitive ELISA; competitor 001. Here is the method:
as §1

For assay [4] the target is unchanged. Kind of assay: competitive ELISA; competitor 002. Here is the method:
as §1

Assay [5] has the same target. Kind of assay: competitive ELISA; competitor HEFLB. Here is the method: as §1
The target is the same in assay [6]. The assay can be described thus: competitive ELISA; competitor 032. On the procedure:
as §1

B1: Antibody 074 (hybridoma antibody) (antibody, V domains shown)
VH: QVQLQQPRAELVKPGASVMLSCKASGYTFSSYWIHWVRQGPGQGLEWIGLIHPNSGNTDCSETFKNKATLTVDTSSSTAYMQLSSLASEDSAVYYCARDGASYDWFVHWGQGTLVTVSA
VL: not shown
notes: mouse hybridoma antibody
For the molecule B1, the “% Competition” value in assay [1] was -1%; in assay [2], 92%; in assay [3] it was 33%; in assay [4], 14%; in assay [5], -14%; in assay [6], 34%.

B2: Antibody 060 (hybridoma antibody) (antibody, V domains shown)
VH: QVQLKESGPGLVAPSESLSITCTVSGFSLTNYDISWIRQSPGKGLEWLGVIWTGGDTNFNSAFMSRLSISKDKSKSQVFLKLNSLQTDDTAIYYCVRVQYFGGSYGPMDYWGQGISVTVSS
VL: DIQMTQASSYLSVSLGGRVTITCEASDHINDWLAWYQQTPGNAPRLLISGATSLETGVPSRFSGSGSGKDYTLSITSLQTEDIATYYCQQYWNTPLTFGAGTRLELK
notes: mouse hybridoma antibody
Regarding B2, the “% Competition” value in assay [1] is 93%; in assay [2], -1%; in assay [3], 0%; in assay [4], 1%; in assay [5] it was -3%; in assay [6] it was 4%.

B3: Antibody 035 (hybridoma antibody) (antibody, V domains shown)
VH: QIQLVQSGPELRKPGETVKISCKASGYSFTNYAMNWVKQAPGKVLKWMGFINTYTGEPTYADDFKGRFAFSLETSASTAYLQINNLKNEDTATYFCTRTRGYYDFDGGAFDYWGQGTSLTVSS
VL: DIVMTQSQKFMSTSIGDRVSVTCKASQNVGTHLAWYQQKPGQSPKALIFSASYRYIGVPDRFTGSGSGTDFTLTITNVQSEDLAEYFCQQYNTYPLTFGAGTKLELK
notes: mouse hybridoma antibody
B3: the “% Competition” value is -1% in assay [1]; 6% in assay [2]; 92% in assay [3]; 86% in assay [4]; 2% in assay [5]; 89% in assay [6].

B4: reference antibody HEFLB (antibody, V domains shown)
VH: EVQLVQSGAEVKKPGESLRISCKASGYSFTSYWVHWVRQMPGKGLEWMGNIDPSDSDTHYSPSFQGHVTLSVDKSISTAYLQLSSLKASDTAMYYCVRGGTGTLAYFAYWGQGTLVTVSS
VL: DVVMTQSPLSLPVTLGQPASISCRSSQSLVHSYGNTYLYWFQQRPGQSPRLLIYRVSNRFSGVPDRFSGSGSGTDFTLKISRVEAEDVGVYYCFQGTHVPYTFGGGTKVEIK
In the case of B4, the “% Competition” value is 7% in assay [1]; 2% in assay [2]; 89% in assay [3]; 81% in assay [4]; 88% in assay [5]; 91% in assay [6].

B5: Antibody 001 (hybridoma antibody) (antibody, V domains shown)
VH: EVKLEESGGGLVQPGGSMKLSCVASGFTFRNYWMNWVRQSPERGLEWIAEISLKSNTYATHYAESVKGRFAISRDGSKSSFYLQMNDLRAEDTGIYYCTTFTKVVADWHLDVWGAGTTVTVSS
VL: DVLMTQTPLSLPVSLGDQASISCRSSQNIVHSNGNTYLEWYLQKPGQSPKLLIYKVSNRFSGVPDRFSGSGSGTDFTLRISRVEAEDLGVYYCFQGSHVPFTFGSGTKLEIK
notes: mouse hybridoma antibody
Consider B5, for which the “% Competition” value in assay [1] was 19%; in assay [2] it was 5%; in assay [3], 96%; in assay [4], 95%; in assay [5], 36%; in assay [6] it was 96%.

B6: Antibody 032 (hybridoma antibody) (antibody, V domains shown)
VH: EVRLEESGGGLVQPGGSMKLSCVVSGFTFRNYWMNWVRQSPERGLEWIAEITLKSNTYATHYAESVKGRFAISRDDSKSSFYLQMNDLRPEDTGIYYCTTFTKVVADWHLDVWGAGTTVTVSS
VL: DVLMTQTPLSLPVNLGDQASISCRSSQNIVHSNGNTYLEWYLQKPGQSPKLLIYKVSNRFSGVPDRFSGSGSGTDFTLRISRVEAEDLGVYYCFQGSHVPFTFGSGTKLEIK
notes: mouse hybridoma antibody
As to B6, the “% Competition” value turned out to be 7% in assay [1]; 6% in assay [2]; 94% in assay [3]; 93% in assay [4]; 14% in assay [5]; 94% in assay [6].

B7: Antibody 002 (hybridoma antibody) (antibody, V domains shown)
VH: EVKLEESGGGLVQPGGSMILSCVASGFTFRNYWMNWVRQSPERGLEWIAEITLKSNTYATHYAESVKGRFAISRDDSKSSFYLQMNDLRPEDTGIYYCTTFTKVVADWHLDVWGAGTTVTVSS
VL: DVLMTQTPLSLPVSLGDQASISCRSSQNIVHSNGNTYLEWYLQKPGQSPKLLIYKISNRFSGVPDRFSGSGSGTDFTLRISRVEAEDLGVYYCFQGSHVPFTFGSGTKLEIQ
notes: mouse hybridoma antibody
For the molecule B7, the “% Competition” value in assay [1] was -10%; in assay [2], -10%; in assay [3], 94%; in assay [4], 90%; in assay [5] it was 7%; in assay [6], 92%.

B8: Antibody 022 (hybridoma antibody) (antibody, V domains shown)
VH: QIQLVQSGPELKKPGETVKISCKASGYTFTDYAMHWVKQAPGKGLKWMGWKNTETGESTYAEDFKGRFAFFLETSASTAYLQINNVKNEDTATYFCARGGYGSNYVMDYWGQGTSVIVSS
VL: DIQMTQSSSSFSVSLGDRVTITCKASEDIYNRLAWYQQKPGNAPRLLISGATSLETGVPSRFSGSGSGKDYTLSITSLQTEDVATYYCQQYWNSPRTFGGGTKLEIK
notes: mouse hybridoma antibody
For the molecule B8, the “% Competition” value in assay [1] was 26%; in assay [2], -1%; in assay [3], 2%; in assay [4], 6%; in assay [5], 1%; in assay [6] it was 4%.

B9: reference antibody KWAR23 (antibody, V domains shown)
VH: EVQLQQSGAELVKPGASVKLSCTASGFNIKDYYIHWVQQRTEQGLEWIGRIDPEDGETKYAPKFQDKATITADTSSNTAYLHLSSLTSEDTAVYYCARWGAYWGQGTLVTVSS
VL: QIVLTQSPAIMSASPGEKVTLTCSASSSVSSSYLYWYQQKPGSSPKLWIYSTSNLASGVPARFSGSGSGTSYSLTISSMEAEDAASYFCHQWSSYPRTFGAGTKLELK
In the case of B9, the “% Competition” value in assay [1] is 5%; in assay [2] it was 1%; in assay [3] it was 85%; in assay [4] it was 49%; in assay [5], 27%; in assay [6] it was 82%.

B10: Antibody 050 (hybridoma antibody) (antibody, V domains shown)
VH: QIQLVQSGPELKKPGETVKISCKASGYTFTHYSMHWVKQAPGKGLKWMGWINTETAEPTYVDDFKGRFAFSLEASASTAFFQINNLKNEDTATYFCARGGLRQGDYWGQGTTLTVSS
VL: QIVLTQSPPIMSASPGEKVTLTCSATSSVSASYLYWFQQKPGSSPKLWIYSTSNLASGVPARFSGSGSGTSYSLTISNMEPADAASYFCHQWSSYPYTFGGGTKLEIK
notes: mouse hybridoma antibody
As for B10, the “% Competition” value is 17% in assay [1]; 2% in assay [2]; 2% in assay [3]; 3% in assay [4]; -14% in assay [5]; 8% in assay [6].
